Test results from the supplement of paper PMC10567573.

B1: SOAT1 (parent)
chain: GVLILFLTFFAFLHCWLNAFAEML

Variants of: B1
Assay: protein stability index of a GFP-peptide fusion (GPS, HEK-293T) (PSI 1-6); higher = more stable
Conditions: c terminus: a fixed tail appended
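Also: lentivirally expressed fusions sorted by FACS into six bins by GFP to DsRed ratio, PSI derived from sequencing read proportions per bin multiplied by bin number.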

First: GVLILFLTFFAFLHCWDNAFAEML [L17D]
Second: GVLILFLTFFAFLHCWSNAFAEML [L17S]
The protein stability index of the first is higher: 2.9 for the first, 1.44 for the second.

Compared with GVLILFLTFFAFLHCWINAFAEML [L17I], GVLILFLTFFAFLHCWFNAFAEML [L17F] is higher in protein stability index: 2.26 for the first, 2.8 for the second.

Going from GVLILFLTFFAFLHCWNNAFAEML [L17N] to GVLILFLTFFAFLHCWRNAFAEML [L17R], the protein stability index rises from 2.84 to 3.44.

Going from GVLILFLTFFAFLHCWGNAFAEML [L17G] to GVLILFLTFFAFLHCWVNAFAEML [L17V], the protein stability index rises from 2.06 to 3.02.

Going from GVLILFLTFFAFLHCWANAFAEML [L17A] to GVLILFLTFFAFLHCWCNAFAEML [L17C], the protein stability index falls from 2.74 to 2.63.

First: GVLILFLTFFAFLHCWHNAFAEML [L17H]
Second: GVLILFLTFFAFLHCWTNAFAEML [L17T]
The protein stability index of the first is lower: 1.87 for the first, 2.88 for the second.

Compared with GVLILFLTFFAFLHCWENAFAEML [L17E], GVLILFLTFFAFLHCWPNAFAEML [L17P] is lower in protein stability index: 3.02 for the first, 2.22 for the second.

Going from GVLILFLTFFAFLHCWKNAFAEML [L17K] to GVLILFLTFFAILHCWLNAFAEML [F12I], the protein stability index falls from 3.15 to 2.6.

First: GVLILFLTFFAKLHCWLNAFAEML [F12K]
Second: GVLILFLTFFAVLHCWLNAFAEML [F12V]
The protein stability index of the first is higher: 3.54 for the first, 1.84 for the second.

Compared with GVLILFLTFFARLHCWLNAFAEML [F12R], GVLILFLTFFAYLHCWLNAFAEML [F12Y] is higher in protein stability index: 2.64 for the first, 2.75 for the second.

Going from GVLILFLTFFAELHCWLNAFAEML [F12E] to GVLILFLTFFANLHCWLNAFAEML [F12N], the protein stability index falls from 3.48 to 3.

Compared with GVLILFLTFFALLHCWLNAFAEML [F12L], GVLILFLTFFAWLHCWLNAFAEML [F12W] is higher in protein stability index: 2.09 for the first, 2.92 for the second.

First: GVLILFLTFFASLHCWLNAFAEML [F12S]
Second: GVLILFLTFFAALHCWLNAFAEML [F12A]
The protein stability index of the first is higher: 3.35 for the first, 2.65 for the second.

First: GVLILFLTFFATLHCWLNAFAEML [F12T]
Second: GVLILFLTFFAGLHCWLNAFAEML [F12G]
The protein stability index of the first is lower: 2.42 for the first, 2.81 for the second.

Going from GVLILFLTFFADLHCWLNAFAEML [F12D] to GVLILFLTFFAMLHCWLNAFAEML [F12M], the protein stability index rises from 2.27 to 2.87.

Going from GVLILFLTFFAHLHCWLNAFAEML [F12H] to GVLILFLTFFACLHCWLNAFAEML [F12C], the protein stability index rises from 2.43 to 3.26.

Compared with GVLILFLTFFAQLHCWLNAFAEML [F12Q], GVLILFLTFFAFLHCWLNAFGEML [A21G] is higher in protein stability index: 2.71 for the first, 2.77 for the second.

Compared with GVLILFLTFFAFLHCWLNAFFEML [A21F], GVLILFLTFFAFLHCWLNAFEEML [A21E] is lower in protein stability index: 3.12 for the first, 1.83 for the second.

Going from GVLILFLTFFAFLHCWLNAFDEML [A21D] to GVLILFLTFFAFLHCWLNAFHEML [A21H], the protein stability index rises from 2.14 to 2.98.

First: GVLILFLTFFAFLHCWLNAFCEML [A21C]
Second: GVLILFLTFFAFLHCWLNAFIEML [A21I]
The protein stability index of the first is lower: 2.48 for the first, 2.93 for the second.

First: GVLILFLTFFAFGHCWLNAFAEML [L13G]
Second: GVLILFLTFFAFCHCWLNAFAEML [L13C]
The protein stability index of the first is higher: 2.86 for the first, 2.83 for the second.

Going from GVLILFLTFFAFPHCWLNAFAEML [L13P] to GVLILFLTFFAFTHCWLNAFAEML [L13T], the protein stability index rises from 2.6 to 3.62.

Compared with GVLILFLTFFAFHHCWLNAFAEML [L13H], GVLILFLTFFAFSHCWLNAFAEML [L13S] is higher in protein stability index: 2.45 for the first, 3.65 for the second.

Compared with GVLILFLTFFAFVHCWLNAFAEML [L13V], GVLILFLTFFAFWHCWLNAFAEML [L13W] is higher in protein stability index: 2.57 for the first, 3.93 for the second.

Going from GVLILFLTFFAFRHCWLNAFAEML [L13R] to GVLILFLTFFAFKHCWLNAFAEML [L13K], the protein stability index rises from 2.96 to 3.57.

Compared with GVLILFLTFFAFYHCWLNAFAEML [L13Y], GVLILFLTFFAFDHCWLNAFAEML [L13D] is higher in protein stability index: 2.48 for the first, 3.39 for the second.

Going from GVLILFLTFFAFNHCWLNAFAEML [L13N] to GVLILFLTFFAFAHCWLNAFAEML [L13A], the protein stability index rises from 3.07 to 4.05.

First: GVLILFLTFFAFIHCWLNAFAEML [L13I]
Second: GVLILFLTFFAFFHCWLNAFAEML [L13F]
The protein stability index of the first is lower: 2.17 for the first, 2.74 for the second.

Going from GVLILFLTFFAFEHCWLNAFAEML [L13E] to GVLILFLTFFAFQHCWLNAFAEML [L13Q], the protein stability index rises from 3.16 to 4.15.

Going from GVLILFLTFFAFLHCPLNAFAEML [W16P] to GVLILFLTFFAFLHCNLNAFAEML [W16N], the protein stability index rises from 2.19 to 2.59.

Compared with GVLILFLTFFAFLHCGLNAFAEML [W16G], GVLILFLTFFAFLHCQLNAFAEML [W16Q] is lower in protein stability index: 3.64 for the first, 2.55 for the second.

First: GVLILFLTFFAFLHCTLNAFAEML [W16T]
Second: GVLILFLTFFAFLHCILNAFAEML [W16I]
The protein stability index of the first is higher: 3.45 for the first, 2.96 for the second.

Going from GVLILFLTFFAFLHCSLNAFAEML [W16S] to GVLILFLTFFAFLHCMLNAFAEML [W16M], the protein stability index rises from 3.04 to 3.65.

Going from GVLILFLTFFAFLHCELNAFAEML [W16E] to GVLILFLTFFAFLHCFLNAFAEML [W16F], the protein stability index rises from 3.24 to 3.85.

Going from GVLILFLTFFAFLHCHLNAFAEML [W16H] to GVLILFLTFFAFLHCLLNAFAEML [W16L], the protein stability index falls from 3.94 to 3.2.

First: GVLILFLTFFAFLHCKLNAFAEML [W16K]
Second: GVLILFLTFFAFLHCALNAFAEML [W16A]
The protein stability index of the first is higher: 2.19 for the first, 2 for the second.

Compared with GVLILFLTFFAFLHCYLNAFAEML [W16Y], GVLILFLTFFAFLHCDLNAFAEML [W16D] is higher in protein stability index: 2.31 for the first, 2.4 for the second.

Compared with GVLILFLTFFAFLHCVLNAFAEML [W16V], GVLILFLTFFAFLHCCLNAFAEML [W16C] is lower in protein stability index: 3.12 for the first, 2.68 for the second.

Going from GVLILFLTFFAFLHCWLNAAAEML [F20A] to GVLILFLTFFAFLHCWLNAYAEML [F20Y], the protein stability index falls from 3.08 to 2.9.

Going from GVLILFLTFFAFLHCWLNACAEML [F20C] to GVLILFLTFFAFLHCWLNARAEML [F20R], the protein stability index rises from 2.33 to 2.89.

Going from GVLILFLTFFAFLHCWLNAIAEML [F20I] to GVLILFLTFFAFLHCWLNALAEML [F20L], the protein stability index falls from 2.67 to 2.56.

Compared with GVLILFLTFFAFLHCWLNAKAEML [F20K], GVLILFLTFFAFLHCWLNAPAEML [F20P] is higher in protein stability index: 2.71 for the first, 2.93 for the second.

First: GVLILFLTFFAFLHCWLNAEAEML [F20E]
Second: GVLILFLTFFAFLHCWLNANAEML [F20N]
The protein stability index of the first is higher: 2.67 for the first, 2.01 for the second.

Going from GVLILFLTFFAFLHCWLNATAEML [F20T] to GVLILFLTFFAFLHCWLNAHAEML [F20H], the protein stability index rises from 1.98 to 3.21.

First: GVLILFLTFFAFLHCWLNASAEML [F20S]
Second: GVLILFLTFFAFLHCWLNAMAEML [F20M]
The protein stability index of the first is higher: 2.94 for the first, 2.85 for the second.

Compared with GVLILFLTFFAFLHCWLNAGAEML [F20G], GVLILFLTFFAFLHCWLNADAEML [F20D] is higher in protein stability index: 2.22 for the first, 3.92 for the second.

Going from GVLILFLTFFAFLHCWLNAWAEML [F20W] to GVLILFLTFFAFLHCWLNAVAEML [F20V], the protein stability index falls from 3.57 to 3.21.
